According to publication PMC3225088:

Molecular target: T1, NmtR wild-type (Mycobacterium tuberculosis, UniProt O69711 2-120)
T1 sequence: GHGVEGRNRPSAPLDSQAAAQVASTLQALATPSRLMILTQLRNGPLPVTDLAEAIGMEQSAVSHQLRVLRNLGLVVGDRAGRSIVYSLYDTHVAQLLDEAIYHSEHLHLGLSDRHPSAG
Assay: fluorescence anisotropy

B1: nmt operator 30 bp (dsDNA)
DNA 1: GAAATAAATGAACATATGATCATATATTCT
DNA 2: AGAATATATGATCATATGTTCATTTATTTC
With B1 the Ka was 2.86e+10 M⁻¹.
